Source: patent publication US20220259330A1 (SUNSHINE GUOJIAN PHARMACEUTICAL SHANGHAI, published 2022)
Residue numbers refer to the chain shown, from its start. Names may count otherwise. “And” between values parts separate entries of the source, which are not always exact repeats. Equal entries are not always repeated.

Assays:
VEGF165-His [1] = biological target: T1, VEGF165-His (human, UniProt P15692-4 27-191); experiment: ELISA, VEGF165-His coated at 10 ng/well
T1 construct: also called Human VEGF165 with a 6*His tag
T1 sequence: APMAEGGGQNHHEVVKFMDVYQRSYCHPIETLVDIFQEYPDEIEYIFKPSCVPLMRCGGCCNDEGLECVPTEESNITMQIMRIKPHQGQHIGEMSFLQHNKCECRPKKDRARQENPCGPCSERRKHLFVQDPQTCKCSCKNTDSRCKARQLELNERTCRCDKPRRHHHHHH

PD1-His = biological target: T2, PD1-His (human, UniProt Q15116 25-170); experiment: ELISA, plate coated with PD1-His
T2 construct: extracellular domain; In-house protein; also called extracellular domain protein of human PD-1 with a 6*His tag

[2] = biological target: T3, biotinylated human PD-1 extracellular recombinant protein (Sino Biological, Cat. No. 10377-H08H-B) (human, UniProt Q15116 25-170, biotinylated); experiment: bridging ELISA: VEGF165 coated, antibody titrated, biotinylated human PD-1 at 200 ng/ml and streptavidin-HRP for detection
T3 construct: extracellular domain; Bought; detection reagent in the bridging ELISAs

VEGF165-His [3] = biological target: T1, VEGF165-His; experiment: ELISA, plate coated with VEGF165-His
VEGF165-His [4] = biological target: T1, VEGF165-His; experiment: SPR, Biacore 8K, antibody captured on Protein A/G chip, VEGF165-His injected
PD1-ECD-His = biological target: T4, PD1-ECD-His (human, UniProt Q15116 25-170); experiment: ELISA, plate coated with PD1-ECD-His
T4 construct: extracellular domain; Bought; also called recombinant protein of the extracellular segment of human PD-1 with a polyhistidine tag (Sino Biological 10377-H08H); not shown: polyhistidine tag

CD40-ECD-His = biological target: T5, CD40-ECD-His (human, UniProt P25942 21-193); experiment: ELISA, plate coated with CD40-ECD-His
T5 construct: extracellular domain; Bought; also called recombinant protein of the extracellular segment of human CD40 with a polyhistidine tag (Sino Biological 10774-H08H); not shown: polyhistidine tag

CD47-ECD-His = biological target: T6, CD47-ECD-His (human, UniProt Q08722 19-139); experiment: ELISA, plate coated with CD47-ECD-His
T6 construct: extracellular domain; Bought; also called recombinant protein of the extracellular segment of human CD47 with a polyhistidine tag (Sino Biological 12283-H08H); not shown: polyhistidine tag

HER2-ECD-His = biological target: T7, HER2-ECD-His (human, UniProt P04626 23-652); experiment: ELISA, plate coated with HER2-ECD-His
T7 construct: extracellular domain; Bought; also called recombinant protein of the extracellular segment of human Her-2 with a polyhistidine tag (ACROBiosystems HE2-H5225); not shown: polyhistidine tag

CD137-ECD-Fc = biological target: T8, CD137-ECD-Fc (human, UniProt Q07011 24-186); experiment: ELISA, plate coated with CD137-ECD-Fc
T8 construct: extracellular domain; Bought; also called recombinant protein of the extracellular segment of human CD137 with Fc tags (Sino Biological 10041-H02H); not shown: Fc tag
T8 sequence (Q07011 24-186): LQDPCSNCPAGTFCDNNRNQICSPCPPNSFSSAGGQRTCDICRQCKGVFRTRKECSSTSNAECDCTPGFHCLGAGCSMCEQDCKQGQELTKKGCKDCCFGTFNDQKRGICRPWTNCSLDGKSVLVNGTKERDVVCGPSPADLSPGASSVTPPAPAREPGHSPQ

T6 sequence (Q08722 19-139 limits assumed): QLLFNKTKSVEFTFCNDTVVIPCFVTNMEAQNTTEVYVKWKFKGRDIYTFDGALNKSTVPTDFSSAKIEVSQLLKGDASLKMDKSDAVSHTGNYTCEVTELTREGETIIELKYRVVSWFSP
T2 sequence (Q15116 other isoform, or with tags, fused parts or gaps): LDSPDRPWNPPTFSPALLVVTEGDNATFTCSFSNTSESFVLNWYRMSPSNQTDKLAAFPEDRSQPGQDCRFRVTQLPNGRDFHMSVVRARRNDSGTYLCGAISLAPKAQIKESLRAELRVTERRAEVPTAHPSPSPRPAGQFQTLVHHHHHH
T4 sequence (Q15116 25-170): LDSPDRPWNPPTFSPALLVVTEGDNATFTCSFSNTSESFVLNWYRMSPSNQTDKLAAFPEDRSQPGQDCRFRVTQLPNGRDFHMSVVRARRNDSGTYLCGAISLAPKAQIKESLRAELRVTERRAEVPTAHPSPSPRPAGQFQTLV
T5 sequence (P25942 21-193): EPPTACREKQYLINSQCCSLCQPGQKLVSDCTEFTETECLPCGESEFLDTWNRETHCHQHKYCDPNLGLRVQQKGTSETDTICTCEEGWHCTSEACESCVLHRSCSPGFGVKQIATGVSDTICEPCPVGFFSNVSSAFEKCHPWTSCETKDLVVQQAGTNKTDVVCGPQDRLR
T3 sequence (Q15116 25-170): as the sequence (Q15116 25-170) above

B1: 20-Hu-HC+601-LC (antibody, human IgG4 S228P, kappa, V domains shown)
VH: EVQLVESGGGLVQPGGSLRLSCAASGFVFSNYDMSWVRQAPGKRLEWVATISGGGGYTYYSDSVKGRFTISRDNAKNSLYLQMNSLRAEDTAVYYCASPYGHYGFEYWGQGTLVTVSS
VL: DIQMTQSPSSLSASVGDRVTITCSASQDISNYLNWYQQKPGKAPKVLIYFTSSLHSGVPSRFSGSGSGTDFTLTISSLQPEDFATYYCQQYSTVPWTFGQGTKVEIKR
notes: Hybrid antibody
Does B1 bind (VEGF165-His [1])?
Result: no binding

What about the EC50 (PD1-His) of the same binder?
The EC50 was 0.625 nM and 0.975 nM.

B2: 20-Hu (antibody, human IgG4 S228P, kappa, V domains shown)
VH: B1 VH
VL: DIQMTQSPSSLSASVGDRVTITCSASQGISNFLSWYQQKPGKTVKLLIYYTSSLHSGVPSRFSGSGSGTDYTFTISSLQPEDIATYYCQQYSNLPWTFGQGTKVEIKR
notes: Humanized anti-human PD-1, IgG4 (S228P), kappa; also called 20-Humanized; 20-Hu-HC+20-Hu-LC
Which results are given for B2?
binding result (VEGF165-His [1]): no binding; EC50 (PD1-His): 0.206 nM

B3: 601 (antibody, human IgG1, kappa, V domains shown)
VH: EVQLVESGGGLVQPGGSLRLSCAASGYTFTNYGMNWVRQAPGKGLEWVGWINTYTGEPTYAADFKRRFTFSLDTSKSTAYLQMNSLRAEDTAVYYCAKYPHYYGSSHWYFDVWGQGTLVTVSS
VL: B1 VL
notes: Anti-VEGF, IgG1, kappa; also called Bevacizumab
Does B3 bind [2]?
Result: no binding

B4: 601-HC+601-LC-T93N (antibody, human IgG1, kappa, V domains shown)
VH: B3 VH
VL: B1 VL with T93N
How did the EC50 (VEGF165-His [3]) turn out when B4 was run?
The EC50 was 0.126 nM.

B5: 601-HC+601-LC-V46L (antibody, human IgG1, kappa, V domains shown)
VH: B3 VH
VL: B1 VL with V46L
Which EC50 (VEGF165-His [3]) does the source give for B5 here?
Its EC50 is 0.326 nM.

B6: 601-HC+601-LC-V94L (antibody, human IgG1, kappa, V domains shown)
VH: B3 VH
VL: B1 VL with V94L
With B6 as the binder, how does the Kd (VEGF165-His [4]) read?
The Kd was 0.00746 nM.

And the koff (VEGF165-His [4])?
Its koff is 2.91e-05 s⁻¹.

What about the kon (VEGF165-His [4]) of the same binder?
The kon was 3.9e+06 M⁻¹ s⁻¹.

B7: 601-HC+601-LC-Y32F (antibody, human IgG1, kappa, V domains shown)
VH: B3 VH
VL: B1 VL with Y32F
How did the EC50 (VEGF165-His [3]) turn out when B7 was run?
Its EC50 is 0.125 nM.

B8: 40-Fab-609-IgG4 (bispecific antibody)
heavy: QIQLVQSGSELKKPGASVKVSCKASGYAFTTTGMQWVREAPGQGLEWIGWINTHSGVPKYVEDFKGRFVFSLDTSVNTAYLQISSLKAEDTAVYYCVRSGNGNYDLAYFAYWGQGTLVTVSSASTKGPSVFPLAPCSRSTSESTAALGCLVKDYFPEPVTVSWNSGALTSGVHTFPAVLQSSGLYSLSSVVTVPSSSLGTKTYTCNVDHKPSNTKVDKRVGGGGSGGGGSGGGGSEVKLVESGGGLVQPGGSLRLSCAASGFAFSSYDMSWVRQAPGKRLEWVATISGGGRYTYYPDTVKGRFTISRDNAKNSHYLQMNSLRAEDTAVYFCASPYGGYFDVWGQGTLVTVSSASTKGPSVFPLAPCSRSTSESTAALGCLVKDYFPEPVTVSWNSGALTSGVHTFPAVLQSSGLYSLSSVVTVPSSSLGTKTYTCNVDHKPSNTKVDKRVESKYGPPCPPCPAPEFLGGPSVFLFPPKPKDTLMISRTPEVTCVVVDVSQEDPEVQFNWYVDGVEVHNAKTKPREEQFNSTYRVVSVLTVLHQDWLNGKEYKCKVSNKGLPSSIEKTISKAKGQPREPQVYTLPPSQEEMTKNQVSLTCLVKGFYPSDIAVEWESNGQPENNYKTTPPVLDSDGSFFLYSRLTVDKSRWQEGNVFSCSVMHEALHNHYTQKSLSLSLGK
light: EIVLTQSPATLSLSPGERATLSCRASQSISDYLHWYQQKPGQSPRLLIKYASHSISGIPARFSGSGSGSDFTLTISSLEPEDFAVYYCQHGHSFPWTFGQGTKVEIKRTVAAPSVFIFPPSDEQLKSGTASVVCLLNNFYPREAKVQWKVDNALQSGNSQESVTEQDSKDSTYSLSSTLTLSKADYEKHKVYACEVTHQGLSSPVTKSFNRGEC
With B8 as the binder, how does the EC50 (PD1-ECD-His) read?
Its EC50 is 1.02 nM.

And the EC50 (CD40-ECD-His)?
Its EC50 is 0.0956 nM.

B9: Anti-CD40-Hu (antibody, human IgG4 S228P, kappa, V domains shown)
VH: QIQLVQSGSELKKPGASVKVSCKASGYAFTTTGMQWVREAPGQGLEWIGWINTHSGVPKYVEDFKGRFVFSLDTSVNTAYLQISSLKAEDTAVYYCVRSGNGNYDLAYFAYWGQGTLVTVSS
VL: EIVLTQSPATLSLSPGERATLSCRASQSISDYLHWYQQKPGQSPRLLIKYASHSISGIPARFSGSGSGSDFTLTISSLEPEDFAVYYCQHGHSFPWTFGQGTKVEIKR
notes: Humanized anti-human CD40, IgG4 (S228P), kappa; also called humanized MAb2.220
Does B9 bind (PD1-ECD-His)?
Result: no binding

And the EC50 (CD40-ECD-His)?
Its EC50 is 0.11 nM.

B10: Anti-CD40-Hu-HC+609-LC (antibody, human IgG4 S228P, kappa, V domains shown)
VH: B9 VH
VL: EIVLTQSPATLSLSPGERATLSCRASQSISNFLHWYQQKPGQAPRLLIKYASQSISGIPARFSGSGSGTDFTLTISSLEPEDFAVYFCQQSNSWPHTFGQGTKVEIKR
notes: Hybrid antibody
Does B10 bind (PD1-ECD-His)?
Result: no binding

Does B10 bind (CD40-ECD-His)?
Result: no binding

B11: 609-Fab-40-IgG4 (bispecific antibody)
heavy: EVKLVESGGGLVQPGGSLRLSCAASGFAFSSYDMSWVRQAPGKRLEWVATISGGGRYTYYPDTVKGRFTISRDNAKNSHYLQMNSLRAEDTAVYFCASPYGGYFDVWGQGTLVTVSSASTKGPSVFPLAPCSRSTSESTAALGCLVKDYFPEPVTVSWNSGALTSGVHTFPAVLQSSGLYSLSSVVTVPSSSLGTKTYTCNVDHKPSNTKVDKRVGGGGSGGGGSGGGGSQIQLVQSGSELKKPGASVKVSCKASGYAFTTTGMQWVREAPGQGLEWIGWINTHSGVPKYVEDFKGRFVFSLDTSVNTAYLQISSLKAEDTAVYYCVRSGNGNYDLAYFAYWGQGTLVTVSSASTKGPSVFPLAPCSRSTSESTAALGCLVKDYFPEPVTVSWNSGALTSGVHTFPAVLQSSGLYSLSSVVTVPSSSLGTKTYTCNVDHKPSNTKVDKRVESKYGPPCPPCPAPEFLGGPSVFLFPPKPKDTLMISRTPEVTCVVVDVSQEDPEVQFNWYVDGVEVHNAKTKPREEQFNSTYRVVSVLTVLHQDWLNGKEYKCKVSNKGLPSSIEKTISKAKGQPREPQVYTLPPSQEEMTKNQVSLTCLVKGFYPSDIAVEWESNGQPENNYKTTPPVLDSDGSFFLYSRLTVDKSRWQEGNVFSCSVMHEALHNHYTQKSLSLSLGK
light: B8 light
Which results are given for B11?
EC50 (PD1-ECD-His): 0.172 nM; EC50 (CD40-ECD-His): 0.105 nM

B12: 19H6-Hu (antibody, human IgG1, kappa, V domains shown)
VH: QVQLVQSGAEVKKPGASVKVSCKGSGYTFTDYAIHWVRQAPGQSLEWIGVFSIYYENINYNQKFKGRATMTVDKSTSTAYMELRSLRSDDTAVYYCARRDGGTINYWGQGTLVTVSS
VL: DVVMTQSPLSLPVTLGQPASISCRSSQSLVHSNGNTYLHWYQQRPGQSPRLLIYKVSNRFSGVPDRFSGSGSGTDFTLKISRVEAEDVGVYFCSQSTHIPWTFGQGTKVEIKR
notes: Humanized anti-human HER2, IgG1, kappa; also called 19H6-Hu-HC+19H6-Hu-LC
Does B12 bind (CD47-ECD-His)?
Result: no binding

And the EC50 (HER2-ECD-His)?
Its EC50 is 0.077 nM and 0.126 nM and 0.122 nM and 0.193 nM.

Does B12 bind (CD137-ECD-Fc)?
Result: no binding

B13: 19H6-Hu-HC+Anti-CD47B-Hu-LC (antibody, human IgG1, kappa, V domains shown)
VH: B12 VH
VL: B12 VL with N35K, F92Y, I99V, W101Y
notes: Hybrid antibody
Does B13 bind (CD47-ECD-His)?
Result: no binding

And the EC50 (HER2-ECD-His)?
The EC50 was 0.139 nM.

B14: Anti-CD47B-Hu (antibody, human IgG1, kappa, V domains shown)
VH: QVQLVQSGAEVKKPGASVKVSCKASGYTFANHVIHWVRQAPGQGLEWMGYIYPYNDGTKYNEKFKDRVTLTSDKSTSTVYMELSSLRSEDTAVYYCARGGYYTYDDWGQGTLVTVSS
VL: B12 VL with N35K, F92Y, I99V, W101Y
notes: Humanized anti-human CD47, IgG1, kappa; also called humanized MABL-2
B14 was tested. Which EC50 (CD47-ECD-His) did it give?
Its EC50 is 0.0428 nM.

Does B14 bind (HER2-ECD-His)?
Result: no binding

B15: Anti-CD47B-Hu-HC+19H6-Hu-LC (antibody, human IgG1, kappa, V domains shown)
VH: B14 VH
VL: B12 VL
notes: Hybrid antibody
With B15 as the binder, how does the EC50 (CD47-ECD-His) read?
Its EC50 is 0.0541 nM and 0.0617 nM.

Does B15 bind (HER2-ECD-His)?
Result: no binding

B16: CD47B-Fab-19H6-IgG1 (bispecific antibody)
heavy: not shown
light: DVVMTQSPLSLPVTLGQPASISCRSSQSLVHSNGNTYLHWYQQRPGQSPRLLIYKVSNRFSGVPDRFSGSGSGTDFTLKISRVEAEDVGVYFCSQSTHIPWTFGQGTKVEIKRTVAAPSVFIFPPSDEQLKSGTASVVCLLNNFYPREAKVQWKVDNALQSGNSQESVTEQDSKDSTYSLSSTLTLSKADYEKHKVYACEVTHQGLSSPVTKSFNRGEC
For B16, which EC50 (CD47-ECD-His) is on record?
Its EC50 is 0.0782 nM.

And the EC50 (HER2-ECD-His)?
Its EC50 is 0.106 nM.

B17: 19H6-Fab-CD47B-IgG1 (bispecific antibody)
heavy: not shown
light: B16 light
For B17, which EC50 (CD47-ECD-His) is on record?
Its EC50 is 0.195 nM.

And the EC50 (HER2-ECD-His)?
Its EC50 is 0.154 nM.
